B1: B-cell linker protein (Homo sapiens), Q8WV28 (parent)
chain: MDKLNKITVPASQKLRQLQKMVHDIKNNEGGIMNKIKKLKVKAPPSVPRRDYASESPADEEEQWSDDFDSDYENPDEHSDSEMYVMPAEENADDSYEPPPVEQETRPVHPALPFARGEYIDNRSSQRHSPPFSKTLPSKPSWPSEKARLTSTLPALTALQKPQVPPKPKGLLEDEADYVVPVEDNDENYIHPTESSSPPPEKAPMVNRSTKPNSSTPASPPGTASGRNSGAWETKSPPPAAPSPLPRAGKKPTTPLKTTPVASQQNASSVCEEKPIPAERHRGSSHRQEAVQSPVFPPAQKQIHQKPIPLPRFTEGGNPTVDGPLPSFSSNSTISEQEAGVLCKPWYAGACDRKSAEEALHRSNKDGSFLIRKSSGHDSKQPYTLVVFFNKRVYNIPVRFIEATKQYALGRKKNGEEYFGSVAEIIRNHQHSPLVLIDSQNNTKDSTRLKYAVKVS

Variants of: B1
Conditions: with cd2ap_human CD2AP

Row | effect of a mutation on the interaction | Variant
1 | disrupting interaction | MDKLNKITVPASQKLRQLQKMVHDIKNNEGGIMNKIKKLKVKAPPSVPARDYASESPADEEEQWSDDFDSDYENPDEHSDSEMYVMPAEENADDSYEPPPVEQETRPVHPALPFARGEYIDNRSSQRHSPPFSKTLPSKPSWPSEKARLTSTLPALTALQKPQVPPKPKGLLEDEADYVVPVEDNDENYIHPTESSSPPPEKAPMVNRSTKPNSSTPASPPGTASGRNSGAWETKSPPPAAPSPLPAAGKKPTTPLKTTPVASQQNASSVCEEKPIPAERHRGSSHRQEAVQSPVFPPAQKQIHQKPIPLPAFTEGGNPTVDGPLPSFSSNSTISEQEAGVLCKPWYAGACDRKSAEEALHRSNKDGSFLIRKSSGHDSKQPYTLVVFFNKRVYNIPVRFIEATKQYALGRKKNGEEYFGSVAEIIRNHQHSPLVLIDSQNNTKDSTRLKYAVKVS [R49A;R247A;R312A]

— IntAct's records for PubMed 21822214
